Results reported in paper PMC12260392, “Expanding the diversity of bacterial DNA partitioning: A CTP-independent ParABS system for plasmid partitioning in Streptomyces” (Proceedings of the National Academy of Sciences of the …, 2025).
Blank lines part the entries; values can stand above or below the molecule they belong to.

Assays:
[1] = target: T1, ParT (Streptomyces coelicolor A3(2) (plasmid SCP2)) (UniProt Q8VWE5); experiment: SPR; conditions: 4 C; kinetics; DNA fragment assumed as in BLI; BLI: 100 mM Tris-HCl pH 8, 150 mM NaCl, 1 mM MgCl2, 0.005% Tween-20, temperature not given; SPR at 4 C on Biacore 8K
T1 sequence: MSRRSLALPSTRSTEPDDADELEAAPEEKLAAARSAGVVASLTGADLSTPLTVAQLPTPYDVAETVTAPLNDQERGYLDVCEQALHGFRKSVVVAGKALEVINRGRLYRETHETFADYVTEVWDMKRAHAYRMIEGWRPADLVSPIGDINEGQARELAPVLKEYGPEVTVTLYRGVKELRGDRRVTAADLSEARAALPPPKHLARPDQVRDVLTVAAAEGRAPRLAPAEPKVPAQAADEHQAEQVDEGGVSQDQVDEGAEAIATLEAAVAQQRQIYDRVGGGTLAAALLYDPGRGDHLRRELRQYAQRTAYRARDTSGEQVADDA

[2] = target: T1, ParT (Streptomyces coelicolor A3(2) (plasmid SCP2)); experiment: BLI; conditions: BLI: 100 mM Tris-HCl pH 8, 150 mM NaCl, 1 mM MgCl2, 0.005% Tween-20, temperature not given
[3] = test system: ParT (G87P) (Streptomyces coelicolor A3(2) (plasmid SCP2)); experiment: BLI; conditions: BLI: 100 mM Tris-HCl pH 8, 150 mM NaCl, 1 mM MgCl2, 0.005% Tween-20, temperature not given; SPR at 4 C on Biacore 8K
[4] = target: ParA-His6, ParA of plasmid SCP2 (Streptomyces coelicolor)
[5] = target: the molecule itself; experiment: not stated; apo-ParT in solution (SI Appendix, Fig. S8A); the method is not told in the main text
ParT [6] = target: T2, ParT (Streptomyces coelicolor A3(2) (plasmid …, UniProt Q8VWE5 1-325)); experiment: BLI; up to 2 uM ParT; BLI: 100 mM Tris-HCl pH 8, 150 mM NaCl, 1 mM MgCl2, 0.005% Tween-20, temperature not given; SPR at 4 C on Biacore 8K; conditions: protein: recombinant; tags: C-terminal His6; chain copies: 2; label: 5' biotin on strand 1 (BLI); blunt
T2 sequence: T1 sequence

ParT [7] = target: T2, ParT; experiment: BLI; no NTP; equilibrium analysis; BLI: 100 mM Tris-HCl pH 8, 150 mM NaCl, 1 mM MgCl2, 0.005% Tween-20, temperature not given; SPR at 4 C on Biacore 8K; conditions: protein: recombinant; tags: C-terminal His6; chain copies: 2; label: 5' biotin on strand 1 (BLI); blunt

Molecule: 40-bp parS+10 duplex
Kd [1]: 730 nM
Kd ([2]; no NTP, equilibrium analysis, SPR at 4 C on Biacore 8K): 580 nM

Molecule: 180-bp parS DNA cut with BamHI or EcoRI
binding signal (fraction of closed-loop signal) ([2]; 1 uM ParT, free DNA end by BamHI or EcoRI, SPR at 4 C on Biacore …): 0.2
binding signal (fraction of closed-loop signal) [3]: 1

ATPase activity of 0.5 µM ParA with ATP, nonspecific DNA and ParT in increasing molar excess (ATP/ParA/hour) [4]: 6
B1: biotinylated ParT (WT), ParB-like protein of plasmid SCP2 (natural protein)
chain: T1 sequence
modifications: biotin (site and way of biotinylation not stated)

B2: ParT (WT), purified, unlabelled (natural protein, Streptomyces coelicolor, UniProt Q8VWE5 1-325, looked up)
chain: T1 sequence
notes: ParT (SCP2.04c), ParB-like protein encoded on plasmid SCP2 of Streptomyces coelicolor, UniProt Q8VWE5; the rows with itself tell the dimer; also called apo-ParT; SCP2.04c; source: purified
stoichiometry N [5]: 2

B3: 40-bp scrambled parS duplex (dsDNA)
DNA 1: ATCGGGCACCTTAGGGCAATCGTAAGTTCGGCGCACGACC
DNA 2: GGTCGTGCGCCGAACTTACGATTGCCCTAAGGTGCCCGAT
binding result (ParT [6]): no binding

B4: 40-bp parS duplex (dsDNA)
DNA 1: GGCCGACCTCGTGTCTCCAATTGGAGACATCAACGAGGGC
DNA 2: GCCCTCGTTGATGTCTCCAATTGGAGACACGAGGTCGGCC
Kd (ParT [7]): 680 ± 200 nM
